Drawing on the supplement of paper PMC9233669, this text covers self-aminoacylation for 22 sequences.

Series [1] deals with biotinyl-Phe-oxazolone. The experiment in a line: self-aminoacylation, catalytic enhancement (BFO) (fold over background); higher = more active; k-Seq, kA / k0A0; sequences stand for … in GGGAAUGGAUCCACAUCUACGAAUUC…UUCACUGCAGACUUGACGAAGCUG
Summed up: (§1)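 Mutagenized RNA pools with a 21-nt variable region (0.43 μM) were reacted with each biotinyl-aminoacyl-oxazolone at 2–1250 μM for 90 minutes at room temperature, in 50 μL HEPES/NaCl/KCl/MgCl2/CaCl2 buffer containing 5% acetonitrile at pH 6.9–7.0. RNA captured on streptavidin was quantified by triplicate qPCR and by Illumina sequencing. The fraction reacted for each sequence was fit to a pseudo-first-order model with bootstrapping, and catalytic enhancement is the median kA divided by the uncatalyzed rate, taken as the low-activity peak of a bimodal Gaussian fit.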

Series [2] concerns biotinyl-Ile-oxazolone. The experiment in a line: self-aminoacylation, catalytic enhancement (BIO) (fold over background); higher = more active; k-Seq, kA / k0A0; sequences stand for … in GGGAAUGGAUCCACAUCUACGAAUUC…UUCACUGCAGACUUGACGAAGCUG
Summed up:
as §1

Series [3] relates to biotinyl-Met-oxazolone. The experiment in a line: self-aminoacylation, catalytic enhancement (BMO) (fold over background); higher = more active; k-Seq, kA / k0A0; sequences stand for … in GGGAAUGGAUCCACAUCUACGAAUUC…UUCACUGCAGACUUGACGAAGCUG
Summed up:
as §1

The test system of series [4] is biotinyl-Val-oxazolone. Kind of series: self-aminoacylation, catalytic enhancement (BVO) (fold over background); higher = more active; k-Seq, kA / k0A0; sequences stand for … in GGGAAUGGAUCCACAUCUACGAAUUC…UUCACUGCAGACUUGACGAAGCUG
In outline:
as §1

In series [5] the test system is biotinyl-Leu-oxazolone. Kind of series: self-aminoacylation, catalytic enhancement (BLO) (fold over background); higher = more active; k-Seq, kA / k0A0; sequences stand for … in GGGAAUGGAUCCACAUCUACGAAUUC…UUCACUGCAGACUUGACGAAGCUG
Summed up:
as §1

The subject of series [6] is biotinyl-Trp-oxazolone. Kind of series: self-aminoacylation, catalytic enhancement (BWO) (fold over background); higher = more active; k-Seq, kA / k0A0; sequences stand for … in GGGAAUGGAUCCACAUCUACGAAUUC…UUCACUGCAGACUUGACGAAGCUG
In outline:
as §1

Fewer inactive variants are shown than the library holds.

On to “ACUACCCUGGUCAGCGAGUGA [Fam2.1 aminoacylation ribozyme variant]”, for which the self-aminoacylation in series [1] amounted to 38.3; in series [2], 4.51; in series [3], 6.39; in series [4], 4.6; in series [5], 6.39; in series [6], 6.58.

“AUUACCCUGGUCAUCACGUGA [Fam2.1 aminoacylation ribozyme variant]”: the self-aminoacylation in series [1] was found to be 52.4; in series [2] it was 3.08; in series [3], 8.87; in series [4], 4.39; in series [5], 7.86; in series [6], 9.65.

On to “AUUACCGUGGGCAUCGAGUGA [Fam2.1 aminoacylation ribozyme variant]”, for which the self-aminoacylation in series [1] stood at 34.7; in series [2] it was 3.09; in series [3], 5.35; in series [4], 3.22; in series [5], 6.2; in series [6], 5.68.

“CCACACUUCCAGCAAUCGAUC [Fam1B.1 aminoacylation ribozyme variant]”: the self-aminoacylation in series [1] turned out to be 0.92; in series [2], 0.83; in series [3], 0.673; in series [4] it was 0.959; in series [5], 0.579; in series [6], 0.611.

Take “AGGUUUGCUAAUAGUCGCCAG [Fam3.1 aminoacylation ribozyme variant]”: the self-aminoacylation is 1.14 in series [1]; 1.39 in series [2]; 1.51 in series [3]; 1.35 in series [4]; 1.52 in series [5]; 2.22 in series [6].

As for “CUACUUCAAACAAUCGCUCGG [Fam1A.1 aminoacylation ribozyme variant]”, the self-aminoacylation stood at 0.822 in series [1]; 1.02 in series [2]; 0.763 in series [3]; 0.954 in series [4]; 0.768 in series [5]; 0.747 in series [6].

Regarding “AAGUUUGCUAAUAGUCGCAGU [Fam3.1 aminoacylation ribozyme variant]”, the self-aminoacylation amounted to 8.27 in series [1]; 1.33 in series [2]; 1.91 in series [3]; 1.34 in series [4]; 1.66 in series [5]; 3.14 in series [6].

On to “CCACACUUCAAGUAAUGGGUC [Fam1B.1 aminoacylation ribozyme variant]”, for which the self-aminoacylation is 0.642 in series [1]; 0.868 in series [2]; 1.04 in series [3]; 0.66 in series [4]; 0.803 in series [5]; 0.546 in series [6].

As to “AGUACCCUGGGCAUCGAGUGA [Fam2.1 aminoacylation ribozyme variant]”, the self-aminoacylation in series [1] worked out at 47; in series [2], 2.96; in series [3] it was 6.28; in series [4], 3.16; in series [5], 6.54; in series [6], 7.71.

Take “AUUACCCUGGUCAUCAAGGGA [Fam2.1 aminoacylation ribozyme variant]”: the self-aminoacylation in series [1] turned out to be 1.11; in series [2], 0.87; in series [3], 0.807; in series [4] it was 1.13; in series [5], 0.752; in series [6] it was 1.2.

On to “AUUAUCCUGGUGAUCGAGUGA [Fam2.1 aminoacylation ribozyme variant]”, for which the self-aminoacylation in series [1] was determined as 45.5; in series [2], 3.55; in series [3], 7.34; in series [4], 3.46; in series [5], 7.98; in series [6], 9.06.

As to “AAGAUUGCUAAUAGUCGCAAG [Fam3.1 aminoacylation ribozyme variant]”, the self-aminoacylation in series [1] came to 4.83; in series [2], 1.53; in series [3], 1.32; in series [4], 1.31; in series [5], 1.33; in series [6] it was 2.15.

Consider “CUUCACCUAGCUCAUCGGGUG [Fam2.2 aminoacylation ribozyme variant]”, for which the self-aminoacylation in series [1] was 9.04; in series [2] it was 1.76; in series [3], 2.21; in series [4], 2.37; in series [5] it was 2.43; in series [6], 2.82.

“AGUACCGUGGUCAUCGAGUGA [Fam2.1 aminoacylation ribozyme variant]”: the self-aminoacylation turned out to be 24.1 in series [1]; 3.61 in series [2]; 5.19 in series [3]; 3.39 in series [4]; 5.87 in series [5]; 5.99 in series [6].

Turning to “CUACUUCAAACUAUCGAUCUG [Fam1A.1 aminoacylation ribozyme variant]”, the self-aminoacylation turned out to be 0.945 in series [1]; 0.736 in series [2]; 0.57 in series [3]; 0.728 in series [4]; 0.596 in series [5]; 0.369 in series [6].

As to “CCACACUUCAAUUAAUCGGUC [Fam1B.1 aminoacylation ribozyme variant]”, the self-aminoacylation worked out at 26.1 in series [1]; 1.01 in series [2]; 0.937 in series [3]; 1.06 in series [4]; 1.09 in series [5]; 15.6 in series [6].

As to “AAGUUUGCUUAAAGUCGCAAG [Fam3.1 aminoacylation ribozyme variant]”, the self-aminoacylation turned out to be 1.07 in series [1]; 0.972 in series [2]; 0.754 in series [3]; 0.897 in series [4]; 0.896 in series [5]; 1.1 in series [6].

With “CCACUCUUCAAACAAUCGGUC [Fam1B.1 aminoacylation ribozyme variant]”, the self-aminoacylation in series [1] was found to be 78.3; in series [2], 1.23; in series [3] it was 1.44; in series [4] it was 1.3; in series [5], 2.04; in series [6], 41.8.

Regarding “AUUCACUUAGGUCAUCGGGGG [Fam2.2 aminoacylation ribozyme variant]”, the self-aminoacylation was 2.12 in series [1]; 2.04 in series [2]; 2.13 in series [3]; 1.95 in series [4]; 2.74 in series [5]; 2.16 in series [6].

Take “AAGUGUGCUAUUAGUCGCAAG [Fam3.1 aminoacylation ribozyme variant]”: the self-aminoacylation was 2.19 in series [1]; 1.29 in series [2]; 1.36 in series [3]; 1.43 in series [4]; 0.947 in series [5]; 0.997 in series [6].

For the sequence “CCACUCUUCAAGCAAUCGGUU [Fam1B.1 aminoacylation ribozyme variant]”, the self-aminoacylation in series [1] came to 2.51; in series [2], 1.53; in series [3] it was 1.53; in series [4] it was 1.6; in series [5], 1.16; in series [6], 2.27.

Regarding “AAGGUUGCUAAUUGUCGCAAG [Fam3.1 aminoacylation ribozyme variant]”, the self-aminoacylation in series [1] stood at 1.4; in series [2], 1.56; in series [3], 1.36; in series [4], 1.41; in series [5], 1.14; in series [6], 2.85.
